Experimental data as given in patent publication US20220177577A1.

B1: CK6-SET0207 (antibody, V domains shown)
VH: QVQLVQSGAAVKKPGESLKISCKGSGYRFTSYWIGWVRQMPGKGLEWMGIIYPGDSDTRYSPSFQGQVTISAGKSISTAYLQWSSLKASDTAMYYCARHGRGYNGYEGAFDIWGQGTMVTVSS
VL: AIQLTQSPSSLSASVGDRVTITCRASQGISSALAWYQQKPGKAPKLLIYDASSLESGVPSRFSGSGSGTDFTLTISSLQPEDFATYYCQQFNSYPLTFGGGTKVEIK
modifications: here or on the partner: SET0207 payload ('Non-cleavable natural') conjugated, Fc modification D265C H435A, DAR 2.0
B2: CK6 S239C-DM (antibody, V domains shown)
VH: B1 VH
VL: B1 VL
modifications: here or on the partner: duocarmycin (DM) conjugated, Fc modification S239C, DAR 1.65
B3: CK6 S239C-PNU (antibody, V domains shown)
VH: B1 VH
VL: B1 VL
modifications: here or on the partner: PNU (DNA topoisomerase I/II inhibitor) conjugated, Fc modification S239C (printed S2390 in Table 4), DAR 1.4
B4: CK6 S239C-PBD (antibody, V domains shown)
VH: B1 VH
VL: B1 VL
modifications: here or on the partner: PBD (DNA cross linker) conjugated, Fc modification S239C, DAR 1.7
B5: CK6 S239C-D4 (antibody, V domains shown)
VH: B1 VH
VL: B1 VL
modifications: here or on the partner: calicheamicin (D4) conjugated, Fc modification S239C, DAR 1.72

biological target: CD117 on Kasumi-1 cells and on primary human CD34+ bone marrow cells (human), P10721; experiment: cell-based or functional assay
Sequence (P10721 26-976): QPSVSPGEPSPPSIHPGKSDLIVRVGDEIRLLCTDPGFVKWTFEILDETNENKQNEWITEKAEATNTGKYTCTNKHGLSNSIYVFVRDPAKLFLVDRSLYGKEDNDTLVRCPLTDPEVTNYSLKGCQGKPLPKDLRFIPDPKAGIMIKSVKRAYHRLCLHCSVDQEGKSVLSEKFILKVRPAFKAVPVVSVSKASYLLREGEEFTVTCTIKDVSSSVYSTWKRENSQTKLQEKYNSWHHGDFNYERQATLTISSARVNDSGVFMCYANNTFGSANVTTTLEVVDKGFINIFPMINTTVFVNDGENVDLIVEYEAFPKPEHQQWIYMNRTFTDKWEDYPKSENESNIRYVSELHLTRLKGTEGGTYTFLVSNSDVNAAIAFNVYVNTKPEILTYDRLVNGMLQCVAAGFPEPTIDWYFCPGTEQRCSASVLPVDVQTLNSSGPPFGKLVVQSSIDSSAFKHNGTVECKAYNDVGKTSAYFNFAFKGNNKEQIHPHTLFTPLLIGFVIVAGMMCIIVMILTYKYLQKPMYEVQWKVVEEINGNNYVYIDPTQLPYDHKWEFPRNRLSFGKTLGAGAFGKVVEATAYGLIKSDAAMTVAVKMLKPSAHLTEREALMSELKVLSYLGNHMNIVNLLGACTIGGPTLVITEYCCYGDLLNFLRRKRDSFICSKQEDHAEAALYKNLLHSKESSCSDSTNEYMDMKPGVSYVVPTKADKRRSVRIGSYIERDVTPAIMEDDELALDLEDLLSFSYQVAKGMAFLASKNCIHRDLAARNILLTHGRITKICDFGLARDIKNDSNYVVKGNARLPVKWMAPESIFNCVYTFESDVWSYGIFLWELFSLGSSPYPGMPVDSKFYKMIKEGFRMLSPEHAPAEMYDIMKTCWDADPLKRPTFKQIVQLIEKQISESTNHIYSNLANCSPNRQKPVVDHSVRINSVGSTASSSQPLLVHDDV

Row | Binder | % Efficacy, in vitro Kasumi cell killing assay [%] | % Efficacy, in vitro hCD34 cell killing assay [%]
1 | B1 | 0 | 9.18
2 | B2 | 0 | 66.2
3 | B3 | 85.7 | 74.4
4 | B4 | 60.7 | 97.3
5 | B5 | 0 | 52.3
